The record followed here is patent US20220356229A1 (published 2022).

B1: antibody 345 (antibody, V domains shown)
VH: QVQLQESGPGLVKPSQTLSLTCTVSGGSISSGDYYWSWIRQPPGKGLEWIGYIYYSGSTYYNPSLKSRVTISVDTSKNQFSLKLSSVTAADTAVYYCARVGMVDNWNFEGNWFDPWGQGTLVTVSS
VL: QSALTQPRSVSGSPGQSVTISCTGTSSDVGGYNYVSWYQQHPGKAPKLMIYDVSKRPSGVPDRFSGSKSGNTASLTISGLQAEDEADYYCCSYAGSVVFGGGTKLTVL
B2: antibody 332 (antibody, V domains shown)
VH: QVTLRESGPALVKPTQTLTLTCTFSGFSLSTSGMCVSWIRQPPGKALEWLALIDWDDDKYYSTSLKTRLTISKDTSKNQVVLTMTNMDPVDTATYYCARIHDDILTGYHYVDYWGQGTLVTVSS
VL: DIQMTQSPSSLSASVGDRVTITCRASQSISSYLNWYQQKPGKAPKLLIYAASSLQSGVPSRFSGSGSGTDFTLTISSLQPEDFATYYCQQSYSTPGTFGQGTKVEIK
B3: antibody 333 (antibody, V domains shown)
VH: QVHLVESGGGVVLPGRSLRLSCSASQFIFSNYDMHWVRQSPGMGLEWVAGISSDGSDKYYIDSVRGRFTISRDNAKNTLFLQMNSLTTEDTAVYSCAKGGGKFGQYWGRGTLVTVSS
VL: AIQMTQSPSSLSASVGDRVTITCRASQVIRNDLAWFQQKPGEAPNLLVYSASNLQSGVPSRFSGSGSGTDFTLTISSLQPEDFATYYCLQDYSYPYTFGQGTKLDMK
B4: antibody 367 (antibody, V domains shown)
VH: QVQLVQSGAEVKKPGASVKVSCKASGYTFTGYYIHWVRQAPGQGLEWMGWINPNSGGTIYAQKFQGRVTMTRDTSISTAYMELSRLTSDDTAVYSCAREPYYDILTGYYAPRRYFDYWGQGTLVTVSS
VL: QSALTQPASVSGSPGQSITISCTGTSSDVGSYNYVSWYLQHPGKAPKLMIYDVSNRPSGVSNRFSGSKSGNTASLTISGLQAEDEADFYCSSYTSRSTYVFGTGTKVTVL
B5: antibody 331 (antibody, V domains shown)
V domain 1: QITLKESGPTLVKPTETLTLTCSFSGFSLTKTGEAAGWIRQAPGRALEWVTVIFWDDDKRYSPSLQNRISVTKDTSKNQVVLRMTNVARFDTGTYFCWAMGGPGKEYFGQGTLVAVSS
V domain 2: QSVLTQPPSVSGAPGQRVTISCTGTSSSIGPYSDVHWYQHVSGKAPRLLIFGNSNRPSGVPDRFSGSKSGTSASLVIAGLQAEDEADYYCQSYDSSLGEIYVFGTGTTVTVL
B6: antibody 368 (antibody, V domains shown)
V domain 1: QITLKESGPTLVKPTETLTLTCAFSGFSLTKTGEAAGWIRQAPGRALEWVTVIFWDDDKRYSPSLQNRLTVTKDTSKNVVVLTMTNVDPVDTATYFCWAMGGPGKEFFGQGTRVAVSS
V domain 2: QSVLTQPPSVSGAPGQRVTVSCTGTSSSIGPYSDVHWYQHIPGKAPRLLIFGTSNRPSGVPARFSGSKSGSSASLVIAGLQAEDEADYYCQSYDSSLGEIYVFGTGTTVTVL
B7: antibody 339 (antibody, V domains shown)
V domain 1: QITLKESGPTLVKPTETLTLTCSFSGFSLTRTGEAAGWIRQAPGRALEWVTVIFWDDDKRYSPSLQSRLTVTKDTSKNQVVLTMTNVARFDTATYFCWAMGGPGKEYFGQGTQVAVSS
V domain 2: QSVLTQPPSVSGAPGQRVTISCTGTSSSIGPYSDVHWYQHVSGKAPRLLIFGNSNRPSGVPDRFSGSKSGTSASLVIAGLQAEDEADYYCQSYDSSLGEIYVFGTGTTVTVL
B8: antibody 366 (antibody, V domains shown)
VH: QVQLVESGGGVVQPGRSLRLSCAASGFTFSSYAMHWVRQAPGKGLEWVAVISYDGSNKYYADSVKGRFTISRDNSKNTLYLQMNSLRAEDTAVYYCARGLVGYNWFDPWGQGTLVTVSS
VL: DIQMTQSPSSVSASVGDRVTITCRASQGISSWLAWYQQKPGKAPKLLIYAASSLQSGVPSRFSGSGSGTDFTLTISSLQPEDFATYYCQQANSFTFGPGTKVDIK
B9: antibody 363 (antibody, V domains shown)
VH: EVQLLESGGGLVQPGGSLRLSCAASGFTFSTYAMSWVRQAPGKGLEWVSAISGSGGSTYYADSVKGRFTISRDNSKNTLYLQMNSLRAEDTAVYYCASGYSPDYWGQGTLVTVSS
VL: not shown
B10: antibody 337 (antibody, V domains shown)
VH: QVQLVESGGGVVQPGRSLRLSCAASGFTFSSYGMHWVRQAPGKGLEWVAIIWYDGSNKYYADSVKGRFTISRDNSKNTLYLQMNSLRAEDTAVYYCAKDTGGYCSGGSCYPESYFDYWGQGTLVTVSS
VL: SYVLTQPPSVSVAPGKTARITCGGNNIGSKSVHWYQQKPGQAPVLVIYYDSDRPSGIPERFSGSNSGNTATLTINRVEAGDEADYYCQVWDGSSDHLYVFGTGTKVTVL
B11: antibody 329 (antibody, V domains shown)
VH: EVQLVESGGGLVQPGGSLRLSCAASGFTFSSYWMHWVRQAPGKGLVWVSRINSDGSSTSYADSVKGRFTISRDNAKNTLYLQMNSLRAEDTAVYYCAREGIVATITLDYWGQGTLVTVSS
VL: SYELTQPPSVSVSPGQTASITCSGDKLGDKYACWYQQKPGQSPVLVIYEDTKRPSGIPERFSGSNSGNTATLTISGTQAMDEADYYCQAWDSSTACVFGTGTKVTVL
B12: antibody 343 (antibody, V domains shown)
VH: QVQLVESGGDVVQPGTSLRLSCAASGFTFNNYGFHWVRQAPGKGLEWVALISSDGASTHYADSVKGRFTISRDSSVNTLYLQMNSLSLEDTAVYYCATGHCGTTCYYFDYWGQGTLVSVSS
VL: DIQVTQSPSYLSASVGDRVTITCRASQTISTFLQWYQQKVGKAPKLLIYAASTLQSGVPSRFSGSGSGTDFSLTISSLQPEDFATYYCQQSYSAPLSFGGGTKVEIK
B13: antibody 342 (antibody, V domains shown)
VH: EVQLVQSGAEVKKPGATVKISCKVSGYTFTDYYMHWVQQAPGKGLEWMGLVDPEDGETIYAEKFQGRVTITADTSTDTAYMELSSLRSEDTAVYYCATGGVSVWFREFPASYSGSYLGYWGQGTLVTVSS
VL: not shown
B14: antibody 324 (antibody, V domains shown)
VH: QVQLQESGPGLVKPSGTLSLTCAVSGGSISSSNWWSWVRQPPGKGLEWIGEIYHSGSTNYNPSLKSRVTISVDNSKNQFSLKLSSVTAADTAVYYCARESVAAAGISYYYYGMDVWGQGTTVTVSS
VL: EIVLTQSPGTLSLSPGERATLSCRASQSVSGRYLAWYQQKPGQAPRLLIYGASSRATGIPDRFSGSGSGTDFTLTISRLEPEDFAVYYCQHYGSSPGTFGQGTRLEIK
B15: antibody 328 (antibody, V domains shown)
VH: QVQLQESGPGLVKPSGTLSLTCAVSGGSISSSNWWSWVRQPPGKGLEWIGEIYHSGSTNYNPSLKSRVTISVDNSKNQFSLKLSSVTAADTAVYYCARESVAAAGISYYYYGMDVWGQGTTVTVSS
VL: DIQMTQSPSSLSASVGDRVTITCRASQGIRNDLGWYQQKPGKAPKRLIYAASSLQSGVPSRFSGSGSGTEFTLTVSGLQPEDFATYYCLQYNSSPLTFGGGTKVEIK
B16: antibody 351 (antibody, V domains shown)
VH: HVQLVESGGGVVQPGRSLRLSCAASGFISRNYGMEWVRQAPGQGLEWVAGIWYDGSKKYYADSVKGRFTISRDTSKNTLFLQMDSLRAEDTAVFYCATATKTFCGGDCPPGGMDVWGQGTTVTVST
VL: SYVLTQPPSVSVAPGKTAWITCVGNNIESESVHWYQQRPGQAPVLVIYYDSDRPSGIPERFFGSNSGNTATLTISRVEAGDEADYYCQVWDSNSDLMVFGGGTKLTVL
B17: antibody 340 (antibody, V domains shown)
VH: QVQLVQSGAEVKKPGASVKVSCKASGYTFTSYDINWVRQATGQGLEWMGWMNPNSGNTGYAQKFQGRVTMTRNTSISTAYMELSSLRSEDTAVYYCARGRYCTGGVCWGDWYFDLWGRGTLVTVSS
VL: QSVLTQPPSVSGAPGQRVTISCTGSSSNIGAGYDVHWYQQLPGTAPKFLIYGNSNRPSGVPDRFSGSKSGTSASLAITGLQAEDEADYYCQSYDSSLSGPVFGGGTKLTVL
B18: antibody 372 (antibody, V domains shown)
VH: QVQLVESGGGVVQPGRSLRLSCAASGFTFSSYAMHWVRQAPGKGLEWVAVISYDGSNKYYADSVKGRFTISRDNSKNTLYLQMNSLRAEDTAVYYCARDLGTSALLWFGELFLNYGMDVWGQGTTVTVSS
VL: QSALTQPRSVSGSPGQSVTISCTGTSSDVGGYNYVSWYQQHPGKAPKLMIYDVSKRPSGVPDRFSGSKSGNTASLTISGLQAEDEADYYCCSYAGSPILVFGGGTKLTVL
B19: antibody 348 (antibody, V domains shown)
VH: QVQLVQSGSELKKPGASVKVSCKASGYTFTSYAMNWVRQAPGQGLEWMGWINTNTGNPTYAQGFTGRFVFSLDTSVSTAYLQISSLKAEDTAVYYCARDHELPNTSSWFGHFEYWGQGTLVTVSS
VL: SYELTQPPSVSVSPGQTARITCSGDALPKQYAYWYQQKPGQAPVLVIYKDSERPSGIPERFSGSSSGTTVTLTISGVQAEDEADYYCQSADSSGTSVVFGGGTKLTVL
B20: antibody 320 (antibody, V domains shown)
VH: QVQLVQSGAEVKKPGASVKVSCKASGYTFTSYGISWVRQAPGQGLEWMGWISAYNGNTNYAQKLQGRVTMTTDTSTRTAYMELRSLRSDDTAVYYCARVGCYYDSSGYSCAENFQHWGQGTLVTVSS
VL: QSVLTQPPSVSGAPGQRVTISCTGSSSNIGAGYDVHWYQQLPGTAPKLLIYGNSNRPSGVPDRFSGSKSGTSASLAITGLQAEDEADYYCQSYDSSLSALFGGGTKLTVL
B21: antibody 349 (antibody, V domains shown)
VH: EVQLVQSGAEVKKPGATVKISCKVSGYTFTDYYMHWVQQAPGKGLEWMGLVDPEDGETIYAEKFQGRVTITADTSTDTAYMELSSLRSEDTAVYYCATENKVPTIIAAAGTRDYYYYGMDVWGQGTTVTVSS
VL: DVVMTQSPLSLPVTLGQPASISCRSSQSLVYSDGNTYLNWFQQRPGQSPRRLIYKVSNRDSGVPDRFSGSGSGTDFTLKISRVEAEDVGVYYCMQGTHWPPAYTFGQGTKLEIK
B22: antibody 323 (antibody, V domains shown)
VH: QVQLVQSGAEVKKPGASVKVSCKVSGYTLTELSMHWVRQAPGKGLEWMGGFDPEDGETIYAQKFQGRVTMTEDTSTDTAYMELSSLRSEDTAVYYCATSTIFAPGGWFDPWGQGTLVTVSS
VL: QSALTQPASVSGSPGQSITISCTGTSSDVGSYNLVSWYQQHPGKAPKLMIYEVSKRPSGVSNRFSGSKSGNTASLTISGLQAEDEADYYCCSYAGSTHYVFGTGTKVTVL

This assay deals with SARS-CoV Spike protein (SARS-CoV, UniProt P59594 14-1190).
On to B1, for which the “bead binding signal (median fluorescence, fold over isotype control)” value is 1.09 fold over isotype control. B2: the “bead binding signal (median fluorescence, fold over isotype control)” value was 0.99 fold over isotype control.

For B3, the “bead binding signal (median fluorescence, fold over isotype control)” value was found to be 1.21 fold over isotype control.

On to B4, for which the “bead binding signal (median fluorescence, fold over isotype control)” value is 1.08 fold over isotype control. Turning to B5, the “bead binding signal (median fluorescence, fold over isotype control)” value worked out at 1.34 fold over isotype control. For B6, the “bead binding signal (median fluorescence, fold over isotype control)” value was 1.09 fold over isotype control. The value for B7 was 1.27 fold over isotype control; that for B8 was 1.23 fold over isotype control; that for B9 was 1.09 fold over isotype control. B10: the “bead binding signal (median fluorescence, fold over isotype control)” value turned out to be 439 fold over isotype control.

B11: the “bead binding signal (median fluorescence, fold over isotype control)” value came out at 2.46 fold over isotype control. For the molecule B12, the “bead binding signal (median fluorescence, fold over isotype control)” value turned out to be 1.19 fold over isotype control. On to B13, for which the “bead binding signal (median fluorescence, fold over isotype control)” value is 1.16 fold over isotype control.

With B14, the “bead binding signal (median fluorescence, fold over isotype control)” value was found to be 1.14 fold over isotype control. Consider B15, for which the “bead binding signal (median fluorescence, fold over isotype control)” value stood at 1.22 fold over isotype control. For B16, the “bead binding signal (median fluorescence, fold over isotype control)” value was determined as 1.08 fold over isotype control. Consider B17, for which the “bead binding signal (median fluorescence, fold over isotype control)” value worked out at 1.26 fold over isotype control. On to B18, for which the “bead binding signal (median fluorescence, fold over isotype control)” value is 1.08 fold over isotype control. B19: the “bead binding signal (median fluorescence, fold over isotype control)” value is 1.16 fold over isotype control. The value for B20 was 989 fold over isotype control; that for B21 was 1.12 fold over isotype control. To B22 belongs 1.29 fold over isotype control.
